Ends that are not written are not given here.
Tests used:
Type in all cases: physicochemical
[1] = Retention of peptides 2DOS-1 to 2DOS-16 on a hydrophobic surface (polypropylene microtitre plate wells), water wash; settings: 400V scan
Method in brief: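 10 μM peptides, with TAMRA, in 10 mM tris-HCl pH 8.0 in 50% acetonitrile, dried overnight in polypropylene wells, then washed ten times with water. Retained peptide resuspended in the same solvent and fluorescence imaged (532 nm excitation, 580 nm filter). Quantified from 400 V scans.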

[2] = pH resistance of peptide 2DOS-2 deposited onto a polypropylene hydrophobic surface; settings: for Retained fluorescence: 100 mM phosphate buffer 30 minutes
Method: The pH resistance of peptide 2DOS-2 (see above) deposited onto a polypropylene hydrophobic surface was investigated:
Twelve 50 μl aliquots of peptide 2DOS-2 in 10 mM tris-HCl (pH 8.0) in 50% (v/v) aqueous acetonitrile were dried down in the wells of a Costar microtitre plate.
The peptide samples were allowed to evaporate to dryness in the dark.
The dried peptide samples in the first eleven wells were incubated with 200 μl of 100 mM phosphate buffer for 30 minutes at room temperature according to the scheme shown in Table 3:
All supernatants were pipetted off and the residual surface-bound peptides in all twelve wells were finally resuspended in 50 μl of 10 mM tris-HCl (pH 8.0) in 50% (v/v) aqueous acetonitrile and the microtitre plate was imaged at 200 μm resolution on a Typhoon Trio Plus variable mode imager (Amersham Biosciences) with the green (532 nm) laser and the 580 BP 30 filter at the PMT voltages indicated below and at normal sensitivity. The scan height was set at +3 mm and the sample was pressed during scanning.
The fluorescence images were analysed using ImageQuant TL v2003.03 (Amersham Biosciences).
Quantification data for peptide 2DOS-2 retention (using data from the 300V scan) are given in Table 8 and graphically in FIG. 19: […]

[3] = Retention of peptides in V-bottomed polypropylene wells; settings: V-bottom wells, 500V scan
Method in brief: (§1)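 1 μl of 10 μM peptide or TAMRA in 10 mM Tris-HCl pH 8.0/50% acetonitrile dried in the dark in flat- or V-bottomed polypropylene wells. Some wells washed 15 min at RT with 1 M NaCl in 10 mM Tris pH 8.0, others left untreated; all redissolved in 50 μl Tris/acetonitrile and fluorescence imaged at 532 nm excitation, 580 BP 30 filter.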

[4] = Retention of peptides in flat-bottomed polypropylene wells; settings: flat-bottom wells, 500V scan
Method in brief: as §1

[5] = Retention of peptides on Costar polypropylene V-bottom wells; settings: 400V scan
Method in brief: (§2)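 Peptides (5 μM) and TAMRA dried from 5 mM tris-HCl pH 8.0 in 75% acetonitrile in V-bottom wells; some wells washed 15 min at room temperature with 1 M NaCl in 10 mM tris-HCl pH 8.0. Residue redissolved in 10 mM tris-HCl pH 8.0/50% acetonitrile; retained fluorescence imaged with 532 nm excitation, 580 BP 30 filter.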

[6] = Retention of peptides on Greiner polystyrene V-bottom wells; settings: 400V scan
Method in brief: as §2

[7] = washed 15 minutes in 1 M NaCl in 10 mM tris-HCl (pH 8.0)

With “N-TAMRA-Phe-Asp- Phe-Ala-Phe-Ser- Phe-Lys-Phe-C ({TAMRA}-FDFAFSFKF) [Peptide 2DOS-2]” the “Initial fluorescence (×10^3)” value ([1]; 100 μl of 10 μM peptide before drying and washing) was 32,492 ×10^3, the “Recovered fluorescence (×10^3)” value ([1]; dried, washed ten times with 250 μl water, resuspended) was 15,704 ×10^3 and the Untreated fluorescence ([2]; 300V scan, unwashed well) was 815,706. For the same substance, the “Stability of retention on polypropylene over pH (in words)” value ([2]; pH 4.51 to 8.52) was “stable over a broad range of pH values”, the Percent retention ([2]; wash pH 4.51) was 83% and the Retained fluorescence ([2]; wash pH 4.51, 300V scan) was 681,015. The Percent retention ([2]; wash pH 5.65) was 71%, the Retained fluorescence ([2]; wash pH 5.65, 300V scan) was 582,482 and the Percent retention ([2]; wash pH 6.02) was 67%. The Retained fluorescence ([2]; wash pH 6.02, 300V scan) was 548,329, the Percent retention ([2]; wash pH 6.25) was 67% and the Retained fluorescence ([2]; wash pH 6.25, 300V scan) was 542,595. For the same substance, the Percent retention ([2]; wash pH 6.47) was 72%, the Retained fluorescence ([2]; wash pH 6.47, 300V scan) was 589,528 and the Percent retention ([2]; wash pH 6.62) was 69%. The Retained fluorescence ([2]; wash pH 6.62, 300V scan) was 566,496, the Percent retention ([2]; wash pH 6.79) was 71% and the Retained fluorescence ([2]; wash pH 6.79, 300V scan) was 576,655. For the same substance, the Percent retention ([2]; wash pH 6.98) was 70%, the Retained fluorescence ([2]; wash pH 6.98, 300V scan) was 570,653 and the Percent retention ([2]; wash pH 7.18) was 72%. The Retained fluorescence ([2]; wash pH 7.18, 300V scan) was 586,083, the Percent retention ([2]; wash pH 7.47) was 75% and the Retained fluorescence ([2]; wash pH 7.47, 300V scan) was 614,028. The Percent retention ([2]; wash pH 8.52) was 81%, the Retained fluorescence ([2]; wash pH 8.52, 300V scan) was 661,781 and the Percent retention [3] was 86%. The Untreated fluorescence ([3]; unwashed) was 9,495,183, the Retained fluorescence [3, 7] was 8,127,309 and the Percent retention [4] was 93%. The Untreated fluorescence ([4]; unwashed) was 15,820,680, the Retained fluorescence [4, 7] was 14,665,720 and the Percent retention [5] was 94%. For the same substance, the Untreated fluorescence ([5]; unwashed) was 5,692,134, the Retained fluorescence [5, 7] was 5,349,601 and the Percent retention [6] was 64%. For the same substance, the Untreated fluorescence ([6]; unwashed) was 614,203 and the Retained fluorescence [6, 7] was 392,422.

Reference: US20090192048A1, “METHOD OF PRODUCING A […] AGENT FOR BINDING A LIGAND” (priority 2005, published 2009)
